According to the supplement of paper PMC9112550, “Optimization of the antimicrobial peptide Bac7 by deep mutational scanning” (BMC Biology, 2022):

system: Escherichia coli TOP10; assay: shrunken log2 fold change of peptide-encoding DNA abundance (4.5 h post-induction vs induction); higher = less antimicrobial activity (less host growth inhibition); conditions: time post-induction: 4.5 h; library: site-saturation at positions 5, 18, 19, 20
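Further: peptides expressed intracellularly from a pBAD plasmid library in pooled LB shake-flask culture, induced with 0.3% L-arabinose, DNA abundance read by NGS, three biological replicates, DESeq2 with apeglm shrinkage.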

Sequence	shrunken log2 fold change
RRIRERPPRLPRPRPRPQRHPRP	1.63
RRIRWRPPRLPRPRPRPVSPPRP	0.175
RRIRDRPPRLPRPRPRPHTKPRP	0.0345
RRIRLRPPRLPRPRPRPDTLPRP	-0.15
RRIRERPPRLPRPRPRPQEKPRP	-0.015
RRIRMRPPRLPRPRPRPTIIPRP	-0.374
RRIRARPPRLPRPRPRPHCLPRP	-0.116
RRIRERPPRLPRPRPRPIMMPRP	-0.689
RRIRARPPRLPRPRPRPYKMPRP	-0.821
RRIRGRPPRLPRPRPRPEIVPRP	0.0103
RRIRYRPPRLPRPRPRPVWSPRP	-0.337
RRIRWRPPRLPRPRPRPVIHPRP	0.162
RRIRHRPPRLPRPRPRPPSDPRP	0.146
RRIRVRPPRLPRPRPRPGTEPRP	0.0578
RRIRCRPPRLPRPRPRPRHSPRP	-0.102
RRIRMRPPRLPRPRPRPWTDPRP	-0.035
RRIRYRPPRLPRPRPRPYEGPRP	-0.00776
RRIRWRPPRLPRPRPRPVMCPRP	-0.0922
RRIRPRPPRLPRPRPRPGYVPRP	-0.401
RRIRIRPPRLPRPRPRPQLIPRP	-0.146
RRIRDRPPRLPRPRPRPFVTPRP	-0.0344
RRIRTRPPRLPRPRPRPWIVPRP	-0.0452
RRIRIRPPRLPRPRPRPGAQPRP	-0.0304
RRIRTRPPRLPRPRPRPETWPRP	-0.0622
RRIRKRPPRLPRPRPRPCKEPRP	-0.0743

Sequence	shrunken log2 fold change
RRIRPRPPRLPRPRPRPNHYPRP	-0.576
RRIRNRPPRLPRPRPRPTLCPRP	0.00464
RRIRFRPPRLPRPRPRPRWPPRP	0.327
RRIRYRPPRLPRPRPRPMAYPRP	-0.0189
RRIRCRPPRLPRPRPRPSTLPRP	-0.686
RRIRARPPRLPRPRPRPHCEPRP	-0.113
RRIRMRPPRLPRPRPRPKFSPRP	0.0925
RRIRIRPPRLPRPRPRPPFEPRP	-0.0183
RRIRKRPPRLPRPRPRPQAPPRP	0.537
RRIRERPPRLPRPRPRPEFTPRP	0.0663
RRIRDRPPRLPRPRPRPAILPRP	0.099
RRIRWRPPRLPRPRPRPFYTPRP	-0.575
RRIRPRPPRLPRPRPRPIWMPRP	0.0829
RRIRFRPPRLPRPRPRPAFGPRP	0.21
RRIRYRPPRLPRPRPRPMDKPRP	-0.432
RRIRFRPPRLPRPRPRPHLVPRP	-0.33
RRIRSRPPRLPRPRPRPTVAPRP	0.243
RRIRSRPPRLPRPRPRPHIPPRP	-0.836
RRIRERPPRLPRPRPRPETRPRP	-0.0227
RRIRKRPPRLPRPRPRPKFWPRP	0.798
RRIRYRPPRLPRPRPRPEKDPRP	0.0236
RRIRWRPPRLPRPRPRPADAPRP	0.739
RRIRHRPPRLPRPRPRPRCGPRP	0.202
RRIRYRPPRLPRPRPRPLSCPRP	-0.0548
RRIRYRPPRLPRPRPRPNNSPRP	-0.52

Sequence	shrunken log2 fold change
RRIRFRPPRLPRPRPRPRYMPRP	-0.689
RRIRLRPPRLPRPRPRPRYMPRP	-0.982
RRIRWRPPRLPRPRPRPDYLPRP	-0.0223
RRIRQRPPRLPRPRPRPTLSPRP	0.322
RRIRSRPPRLPRPRPRPEENPRP	0.64
RRIRYRPPRLPRPRPRPELPPRP	0.0248
RRIRFRPPRLPRPRPRPFKCPRP	-2.13
RRIRERPPRLPRPRPRPPKPPRP	0.122
RRIRTRPPRLPRPRPRPHHWPRP	-0.0973
RRIRHRPPRLPRPRPRPCGCPRP	-0.0378
RRIRRRPPRLPRPRPRPQKKPRP	-0.0695
RRIRPRPPRLPRPRPRPDLLPRP	-0.0805
RRIRIRPPRLPRPRPRPPDWPRP	0.286
RRIRIRPPRLPRPRPRPSVEPRP	-0.947
RRIRFRPPRLPRPRPRPHCRPRP	-0.0499
RRIRWRPPRLPRPRPRPQTRPRP	0.122
RRIRLRPPRLPRPRPRPPVKPRP	-0.0732
RRIRQRPPRLPRPRPRPAFSPRP	0.12
RRIRVRPPRLPRPRPRPHAWPRP	0.0267
RRIRPRPPRLPRPRPRPFHWPRP	0.0105
RRIRGRPPRLPRPRPRPKAAPRP	1.26
RRIRQRPPRLPRPRPRPQQTPRP	0.178
RRIRIRPPRLPRPRPRPDAKPRP	0.0898
RRIRLRPPRLPRPRPRPKSNPRP	-0.172
RRIRCRPPRLPRPRPRPAWHPRP	0.182
